The text below walks through data of patent US20150344570A1 (published 2015).

Test [1] concerns the target T1, FcγRIIa H (FcγRIIa, allotype with His at position 131), extracellular domain with C-terminal His tag (human, UniProt P12318 34-217).
T1 construct: extracellular domain; also called FcgRIIa H; 2aH; not shown: His tag at the C terminus
T1 sequence (looked up): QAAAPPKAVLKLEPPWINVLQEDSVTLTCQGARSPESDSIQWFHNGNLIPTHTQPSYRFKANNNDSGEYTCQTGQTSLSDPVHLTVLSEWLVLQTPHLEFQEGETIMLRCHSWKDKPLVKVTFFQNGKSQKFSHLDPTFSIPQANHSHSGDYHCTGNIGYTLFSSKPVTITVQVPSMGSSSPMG
Briefly: SPR (Biacore); He/Con_2aH divided by He/Con_2b (FcγRIIb). (In SPR one partner is held on a chip, and binding of the other changes the refractive index at the surface.)

The target of test [2] is T1, FcγRIIa H (FcγRIIa, allotype with His …). Briefly: SPR (Biacore), relative binding vs GpH7-A5/GpH7-B3/GpL16-k0.
Test [3] addresses T2, FcγRIIb, extracellular domain with C-terminal His tag (human, UniProt P31994 43-217).
T2 construct: extracellular domain; also called FcgRIIb; 2b; not shown: His tag at the C terminus
T2 sequence (looked up): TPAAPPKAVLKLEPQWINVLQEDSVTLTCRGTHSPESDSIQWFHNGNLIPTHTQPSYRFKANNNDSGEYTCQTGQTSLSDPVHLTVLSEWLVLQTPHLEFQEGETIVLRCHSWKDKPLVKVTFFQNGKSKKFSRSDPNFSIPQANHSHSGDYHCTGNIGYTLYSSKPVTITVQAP
The test is described as above.

For test [4], the target named is T3, FcγRIIa H (human FcγRIIa, allotype H131, extracellular domain with C-terminal His tag) (human, UniProt P12318 34-217).
T3 construct: extracellular domain; Soluble extracellular domain expressed in FreeStyle293 cells; used as analyte in Biacore; also called FcgRIIa H; FcγRIIa type H; not shown: His tag attached to the C terminus
T3 sequence (looked up): T1 sequence (looked up)
Briefly: SPR (Biacore T100), antibody captured on antigen-peptide chip, FcγRIIa H as analyte; relative binding. The method, then: Analysis of interaction between objective antibody and the FcγR was carried out using Biacore T100 (GE Healthcare). HBS-EP+ (GE Healthcare) was used as the running buffer, and the measurement temperature was set to 25° C. Chips produced by immobilizing the antigen peptide by the amine coupling method to a Series S Sencor Chip CM5 (GE Healthcare), or alternatively, chips produced by allowing preliminarily biotinylated antigen peptides to interact with and immobilize onto a Series S Sensor Chip SA (certified) (GE Healthcare) were used. Antibodies of interest were captured onto an antigen peptide-immobilized chip, and allowed to interact to each FcγR diluted with running buffer. To regenerate and repeatedly use the chip, the antibodies captured on the chip were washed off by reacting 10 mM glycine-HCl, pH 1.5.

B1: GpH7-A5/GpH7-B3 variant N325_07I/GpL16-k0 (antibody, human IgG1, kappa)
heavy 1: not shown
heavy 2: not shown
light: DIVMTQSPLSLPVTPGEPASISCQASESLVHSNRNTYLHWYLQKPGQSPQLLIYKVSNRFSGVPDRFSGSGSGTDFTLKISRVEAEDVGVYYCSQNTHVPPTFGQGTKVEIERTVAAPSVFIFPPSDEQLKSGTASVVCLLNNFYPREAKVQWKVDNALQSGNSQESVTEQDSKDSTYSLSSTLTLSKADYEKHKVYACEVTHQGLSSPVTKSFNRGEC
notes: Heterodimerized anti-glypican-3 IgG1; mutation in one H chain only; also called He Ab
In the case of B1, the “He_2aH/2b (IIaH/IIb)” value in test [1] came out at 0.22 ratio. Also, in test [2], the He/Con_2aH is 38.1 % of HeCon Ab (=100). In addition, the He/Con_2b in test [3] is 171 % of HeCon Ab (=100).

B2: GpH7-A5/GpH7-B3 variant Y300_06M/GpL16-k0 (heterodimerized antibody, He Ab) (antibody, human IgG1, kappa)
heavy 1: not shown
heavy 2: not shown
light: B1 light
notes: Anti-glypican-3 IgG1 heterodimer; the alteration stands in one H chain only; EU numbering; also called Y300_06M He Ab; Y300M in one H chain
Consider B2, for which the He/Con_2aH in test [4] is 105 relative binding activity (control heterodimerized antibody GpH7-A5/GpH7-B3/GpL16-k0 = 100).

B3: GpH7-A5/GpH7-B3 variant N325_10E/GpL16-k0 (antibody, human IgG1, kappa)
heavy 1: not shown
heavy 2: not shown
light: B1 light
notes: as for B1
Consider B3, for which the “He_2aH/2b (IIaH/IIb)” value in test [1] was 0.55 ratio. Further, the He/Con_2aH in test [2] was 52.5 % of HeCon Ab (=100). Further, the He/Con_2b in test [3] was 95.9 % of HeCon Ab (=100).

B4: GpH7-A5/GpH7-B3 variant N325_04F/GpL16-k0 (antibody, human IgG1, kappa)
heavy 1: not shown
heavy 2: not shown
light: B1 light
notes: as for B1
For B4, the “He_2aH/2b (IIaH/IIb)” value in test [1] amounted to 0.23 ratio. For the same molecule, the He/Con_2aH in test [2] is 33.4 % of HeCon Ab (=100). Further, the He/Con_2b in test [3] is 143 % of HeCon Ab (=100).

B5: GpH7-A5/GpH7-B3 variant Y300_07I/GpL16-k0 (heterodimerized antibody, He Ab) (antibody, human IgG1, kappa)
heavy 1: not shown
heavy 2: not shown
light: B1 light
notes: Anti-glypican-3 IgG1 heterodimer; the alteration stands in one H chain only; EU numbering; also called Y300_07I He Ab; Y300I in one H chain
B5: the He/Con_2aH in test [4] is 108 relative binding activity (control heterodimerized antibody GpH7-A5/GpH7-B3/GpL16-k0 = 100).

B6: GpH7-A5/GpH7-B3 variant N325_08L/GpL16-k0 (antibody, human IgG1, kappa)
heavy 1: not shown
heavy 2: not shown
light: B1 light
notes: as for B1
As to B6, the “He_2aH/2b (IIaH/IIb)” value in test [1] came to 0.26 ratio. The He/Con_2aH in test [2] is 52 % of HeCon Ab (=100). In addition, in test [3], the He/Con_2b is 197 % of HeCon Ab (=100).

B7: GpH7-A5/GpH7-B3 variant Y300_08L/GpL16-k0 (heterodimerized antibody, He Ab) (antibody, human IgG1, kappa)
heavy 1: not shown
heavy 2: not shown
light: B1 light
notes: Anti-glypican-3 IgG1 heterodimer; the alteration stands in one H chain only; EU numbering; also called Y300_08L He Ab; Y300L in one H chain
For the molecule B7, the He/Con_2aH in test [4] was 108 relative binding activity (control heterodimerized antibody GpH7-A5/GpH7-B3/GpL16-k0 = 100).

B8: GpH7-A5/GpH7-B3 variant N325_09D/GpL16-k0 (antibody, human IgG1, kappa)
heavy 1: not shown
heavy 2: not shown
light: B1 light
notes: as for B1
As for B8, in test [1], the “He_2aH/2b (IIaH/IIb)” value is 0.43 ratio. Further, in test [2], the He/Con_2aH is 53.1 % of HeCon Ab (=100). Besides, in test [3], the He/Con_2b is 124 % of HeCon Ab (=100).

B9: GpH7-B3 variant Y300_08L/GpL16-k0 (homodimerized antibody, Ho Ab) (antibody, human IgG1, kappa)
heavy: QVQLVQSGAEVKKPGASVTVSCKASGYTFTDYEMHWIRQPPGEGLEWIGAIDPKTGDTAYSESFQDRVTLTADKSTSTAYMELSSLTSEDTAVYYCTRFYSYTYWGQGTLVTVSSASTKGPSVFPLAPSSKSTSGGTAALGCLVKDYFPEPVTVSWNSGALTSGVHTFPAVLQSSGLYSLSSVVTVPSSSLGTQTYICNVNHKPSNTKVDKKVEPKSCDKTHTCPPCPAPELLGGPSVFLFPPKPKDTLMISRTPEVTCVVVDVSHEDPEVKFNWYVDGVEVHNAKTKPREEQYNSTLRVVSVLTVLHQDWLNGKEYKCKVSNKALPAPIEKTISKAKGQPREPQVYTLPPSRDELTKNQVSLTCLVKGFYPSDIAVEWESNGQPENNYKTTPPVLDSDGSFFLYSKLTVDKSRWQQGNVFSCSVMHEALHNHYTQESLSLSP
light: B1 light
notes: Anti-glypican-3 IgG1 (G1d with K439E); the alteration stands in both H chains; EU numbering; also called Y300_08L Ho Ab; Y300L in both H chains
Turning to B9, in test [4], the Ho/Con_2aH was 115 relative binding activity (control homodimerized antibody GpH7-B3/GpL16-k0 = 100).

B10: GpH7-A5/GpH7-B3 variant T335_05P/GpL16-k0 (heterodimerized antibody, He Ab) (antibody, human IgG1, kappa)
heavy 1: not shown
heavy 2: not shown
light: B1 light
notes: Anti-glypican-3 IgG1 heterodimer; the alteration stands in one H chain only; EU numbering; also called T335_05P He Ab; T335P in one H chain
As for B10, the He/Con_2aH in test [4] was 108 relative binding activity (control heterodimerized antibody GpH7-A5/GpH7-B3/GpL16-k0 = 100).

B11: GpH7-B3 variant Y300_06M/GpL16-k0 (homodimerized antibody, Ho Ab) (antibody, human IgG1, kappa)
heavy: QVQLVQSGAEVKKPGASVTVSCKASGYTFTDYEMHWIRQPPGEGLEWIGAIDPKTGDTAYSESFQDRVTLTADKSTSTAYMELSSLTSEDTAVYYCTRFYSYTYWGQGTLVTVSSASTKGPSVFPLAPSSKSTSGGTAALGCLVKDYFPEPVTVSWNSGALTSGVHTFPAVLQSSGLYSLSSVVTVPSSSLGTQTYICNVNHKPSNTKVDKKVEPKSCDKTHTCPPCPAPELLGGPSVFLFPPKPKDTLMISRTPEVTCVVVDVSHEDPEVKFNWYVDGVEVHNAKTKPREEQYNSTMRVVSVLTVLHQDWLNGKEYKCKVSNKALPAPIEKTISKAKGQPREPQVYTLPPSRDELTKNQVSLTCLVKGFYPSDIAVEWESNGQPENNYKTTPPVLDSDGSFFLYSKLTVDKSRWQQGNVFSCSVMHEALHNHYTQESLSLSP
light: B1 light
notes: Anti-glypican-3 IgG1 (G1d with K439E); the alteration stands in both H chains; EU numbering; also called Y300_06M Ho Ab; Y300M in both H chains
Consider B11, for which the Ho/Con_2aH in test [4] was 106 relative binding activity (control homodimerized antibody GpH7-B3/GpL16-k0 = 100).

B12: GpH7-A5/GpH7-B3 variant T335_04F/GpL16-k0 (heterodimerized antibody, He Ab) (antibody, human IgG1, kappa)
heavy 1: not shown
heavy 2: not shown
light: B1 light
notes: Anti-glypican-3 IgG1 heterodimer; the alteration stands in one H chain only; EU numbering; also called T335_04F He Ab; T335F in one H chain
On to B12, for which the He/Con_2aH in test [4] is 103 relative binding activity (control heterodimerized antibody GpH7-A5/GpH7-B3/GpL16-k0 = 100).

B13: GpH7-A5/GpH7-B3 variant N325_03V/GpL16-k0 (antibody, human IgG1, kappa)
heavy 1: not shown
heavy 2: not shown
light: B1 light
notes: as for B1
Regarding B13, the “He_2aH/2b (IIaH/IIb)” value in test [1] was 0.41 ratio. The He/Con_2aH in test [2] was 45.2 % of HeCon Ab (=100). Besides, the He/Con_2b in test [3] is 111 % of HeCon Ab (=100).

B14: GpH7-B3 variant T335_09D/GpL16-k0 (homodimerized antibody, Ho Ab) (antibody, human IgG1, kappa)
heavy: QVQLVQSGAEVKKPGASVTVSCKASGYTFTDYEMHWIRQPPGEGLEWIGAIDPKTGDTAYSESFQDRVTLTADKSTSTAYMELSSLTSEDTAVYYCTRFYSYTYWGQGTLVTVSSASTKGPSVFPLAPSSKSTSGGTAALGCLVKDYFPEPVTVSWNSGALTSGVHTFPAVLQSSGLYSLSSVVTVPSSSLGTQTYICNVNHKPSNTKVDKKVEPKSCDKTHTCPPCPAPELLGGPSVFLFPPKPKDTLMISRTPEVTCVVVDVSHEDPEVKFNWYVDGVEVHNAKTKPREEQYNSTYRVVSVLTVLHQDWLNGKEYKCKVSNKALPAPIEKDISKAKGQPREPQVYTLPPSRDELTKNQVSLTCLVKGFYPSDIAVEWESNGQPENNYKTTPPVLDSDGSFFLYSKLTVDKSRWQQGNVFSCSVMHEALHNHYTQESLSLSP
light: B1 light
notes: Anti-glypican-3 IgG1 (G1d with K439E); the alteration stands in both H chains; EU numbering; also called T335_09D Ho Ab; T335D in both H chains
As to B14, the Ho/Con_2aH in test [4] is 110 relative binding activity (control homodimerized antibody GpH7-B3/GpL16-k0 = 100).
